Assay [1] concerns the target T1, Y2H BZR1-AD (Arabidopsis BZR1, At1g75080, full length, with N-terminal GAL4 activation domain; pDEST22-BZR1) (Arabidopsis).
T1 construct: Prey fusion in yeast; also called BZR1 fused to AD; Brassinazole Resistant 1
T1 chain: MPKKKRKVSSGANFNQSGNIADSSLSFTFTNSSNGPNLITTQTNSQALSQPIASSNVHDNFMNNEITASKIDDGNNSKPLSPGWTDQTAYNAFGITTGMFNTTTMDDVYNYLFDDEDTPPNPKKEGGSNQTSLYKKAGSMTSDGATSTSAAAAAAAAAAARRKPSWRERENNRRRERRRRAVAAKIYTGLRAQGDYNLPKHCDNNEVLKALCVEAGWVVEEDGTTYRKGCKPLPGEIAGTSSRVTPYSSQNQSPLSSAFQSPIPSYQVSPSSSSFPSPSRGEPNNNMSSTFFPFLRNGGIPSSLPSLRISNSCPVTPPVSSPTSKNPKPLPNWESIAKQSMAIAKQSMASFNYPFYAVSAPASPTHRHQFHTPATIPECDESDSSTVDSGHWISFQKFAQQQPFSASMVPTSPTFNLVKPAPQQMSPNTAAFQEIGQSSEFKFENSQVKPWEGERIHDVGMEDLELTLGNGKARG
The assay is described as follows: yeast two-hybrid (ProQuest, MaV203, SD/-Leu/-Trp/-His with 3-AT). As to the method:
(§1) The ProQuest two-hybrid system (Invitrogen) was used to analyse interactions between PPD1, NINJA, TPL, and BZR1. Combinations of bait and prey constructs were used to co-transform yeast strain MaV203 (Invitrogen), with selection on synthetic dropout (SD) SD/-Leu/-Trp agar plates. Transformed strains were tested for interactions using 10 μl droplets of 1 in 10 and 1 in 100 dilutions on SD/-Leu/-Trp/-His plates with different concentrations of 3-aminotriazol (3-AT) (Sigma).

In assay [2] the target is T2, Y2H NINJA-AD (Arabidopsis NINJA, At4g28910, full length, with N-terminal GAL4 activation domain); … (Arabidopsis).
T2 construct: Prey fusion in yeast; also called NINJA fused to AD
T2 chain: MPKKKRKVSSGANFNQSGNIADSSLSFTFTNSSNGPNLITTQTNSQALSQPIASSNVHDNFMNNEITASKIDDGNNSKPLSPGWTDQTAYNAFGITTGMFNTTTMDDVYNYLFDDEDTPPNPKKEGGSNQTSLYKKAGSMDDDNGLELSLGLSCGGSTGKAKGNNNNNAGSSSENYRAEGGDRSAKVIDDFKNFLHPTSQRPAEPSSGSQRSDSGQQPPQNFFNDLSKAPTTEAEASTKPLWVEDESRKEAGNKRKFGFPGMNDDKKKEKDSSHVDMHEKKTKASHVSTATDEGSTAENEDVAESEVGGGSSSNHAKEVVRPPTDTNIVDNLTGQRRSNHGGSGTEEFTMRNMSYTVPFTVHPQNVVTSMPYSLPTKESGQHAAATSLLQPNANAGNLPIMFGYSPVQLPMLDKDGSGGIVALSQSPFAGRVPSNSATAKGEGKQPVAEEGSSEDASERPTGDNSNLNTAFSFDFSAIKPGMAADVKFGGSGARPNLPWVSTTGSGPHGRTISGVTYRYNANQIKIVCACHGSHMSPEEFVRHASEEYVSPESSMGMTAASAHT
The assay is described as follows: yeast two-hybrid (legend of FIG. 7). How it is done:
as §1

Assay [3] concerns the target T3, Y2H RGA1-AD (DELLA protein RGA1 with GAL4 activation domain).
T3 construct: Prey fusion in yeast, tested with PPD1-DBD as bait
T3 chain: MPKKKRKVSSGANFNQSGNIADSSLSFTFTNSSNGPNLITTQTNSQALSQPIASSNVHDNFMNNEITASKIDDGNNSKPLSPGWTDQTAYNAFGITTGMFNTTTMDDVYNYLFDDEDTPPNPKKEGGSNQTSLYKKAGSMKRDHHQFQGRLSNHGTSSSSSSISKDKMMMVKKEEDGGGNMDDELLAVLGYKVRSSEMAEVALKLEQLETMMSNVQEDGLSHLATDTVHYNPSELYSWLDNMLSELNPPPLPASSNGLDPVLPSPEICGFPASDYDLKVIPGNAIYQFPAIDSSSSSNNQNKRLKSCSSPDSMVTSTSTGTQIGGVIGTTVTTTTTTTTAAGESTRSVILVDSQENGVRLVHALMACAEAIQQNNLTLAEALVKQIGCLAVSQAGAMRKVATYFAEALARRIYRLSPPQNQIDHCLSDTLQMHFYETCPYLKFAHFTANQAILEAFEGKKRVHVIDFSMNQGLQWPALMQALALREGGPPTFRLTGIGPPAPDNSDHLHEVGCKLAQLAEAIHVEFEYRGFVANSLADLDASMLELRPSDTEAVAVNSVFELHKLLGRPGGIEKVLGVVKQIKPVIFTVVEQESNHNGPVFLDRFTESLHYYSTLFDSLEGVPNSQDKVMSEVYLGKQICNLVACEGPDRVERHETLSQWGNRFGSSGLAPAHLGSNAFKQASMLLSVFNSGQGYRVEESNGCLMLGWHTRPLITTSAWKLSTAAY
The assay is described as follows: yeast two-hybrid, PPD1-DBD as bait, selective medium with 15 mM 3AT. An excerpt:
The ProQuest two-hybrid system (Invitrogen) was used to analyse interactions between PPD1, and RGA1. Full length coding sequences of PPD1, together with truncation or deletion derivatives of PPD1 (PPD1Δppd, PPD1Δtify, and PPD1Δjas*) (FIG. 5), were Gateway sub-cloned into pDEST32 (N-terminal GAL4DBD) or pDEST22 (N-terminal GAL4AD). When translated these generated the following peptide sequences: 55, 65, 66, 67, 68, 7169, which are PPD1-DBD, RGA1, RGA1-AD, PPD1-ppd-DBD, PPD1-tify-DBD, PP1-jas*-DBD respectively.
Combinations of bait and prey constructs were used to co-transform yeast strain MaV203 (Invitrogen), with selection on synthetic dropout (SD) SD/-Leu/-Trp agar plates. Transformed strains were tested for interactions using 10 μl droplets of 1 in 10 and 1 in 100 dilutions on SD/-Leu/-Trp/-His plates with different concentrations of 3-aminotriazol (3-AT) (Sigma). The PPD1-RGA1 interaction was tested with PPD1-DBD used as bait. Transformed yeast was spotted as a ten-fold dilution on control medium (−2) or selective medium (−3) with 15 mM 3AT. Controls were empty vectors, DBD, GAL4 DNA binding domain, AD, GAL4 activation domain (FIG. 5).

For assay [4], the target named is T4, Y2H PPD1-AD (Arabidopsis PPD1 full length with N-terminal GAL4 activation domain; pDEST22-PPD1) (Arabidopsis).
T4 construct: Prey fusion in yeast; The legend says only 'PPD'; also called PPD1 fused to AD
T4 chain: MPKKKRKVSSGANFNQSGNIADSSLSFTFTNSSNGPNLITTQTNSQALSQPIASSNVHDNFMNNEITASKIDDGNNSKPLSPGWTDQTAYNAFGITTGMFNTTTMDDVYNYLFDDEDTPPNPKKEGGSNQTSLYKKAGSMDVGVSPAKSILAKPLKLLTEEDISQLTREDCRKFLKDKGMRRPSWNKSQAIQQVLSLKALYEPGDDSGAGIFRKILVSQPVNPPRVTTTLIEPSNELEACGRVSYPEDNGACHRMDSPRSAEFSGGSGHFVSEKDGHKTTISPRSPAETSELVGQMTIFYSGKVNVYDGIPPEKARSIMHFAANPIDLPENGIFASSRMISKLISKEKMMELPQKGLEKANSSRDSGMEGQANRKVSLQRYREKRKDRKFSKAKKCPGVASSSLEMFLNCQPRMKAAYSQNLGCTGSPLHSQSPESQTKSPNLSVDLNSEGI
The experiment in a line: yeast two-hybrid (legend of FIG. 6). How it is done:
as §1

In assay [5] the target is T1, Y2H BZR1-AD (Arabidopsis BZR1, …). The assay is described as follows: yeast two-hybrid (legend of FIG. 7). How it is done:
as §1

Assay [6] concerns the target T2, Y2H NINJA-AD (Arabidopsis NINJA, …). The assay is described as follows: yeast two-hybrid (legend of FIG. 6). As to the method: as §1

B1: Y2H PPD1-DBD (Arabidopsis PPD1, At4g14713, full length, with N-terminal GAL4 DNA binding domain; pDEST32-PPD1) (other)
chain: MKLLSSIEEACNICRLKKLKCSKEKPKCAKCLKNNWECRYSPKTKRSPLTRAHLTEVESRLERLEQLFLLIFPRENLNMILKMDSLQDIKALLTGLFVQDNVNKDAVTDRLASVETDMPLTLRQHRISATSSSEESSNKGQRQLTVSSRSNQTSLYKKAGSMDVGVSPAKSILAKPLKLLTEEDISQLTREDCRKFLKDKGMRRPSWNKSQAIQQVLSLKALYEPGDDSGAGIFRKILVSQPVNPPRVTTTLIEPSNELEACGRVSYPEDNGACHRMDSPRSAEFSGGSGHFVSEKDGHKTTISPRSPAETSELVGQMTIFYSGKVNVYDGIPPEKARSIMHFAANPIDLPENGIFASSRMISKLISKEKMMELPQKGLEKANSSRDSGMEGQANRKVSLQRYREKRKDRKFSKAKKCPGVASSSLEMFLNCQPRMKAAYSQNLGCTGSPLHSQSPESQTKSPNLSVDLNSEGI
notes: Bait fusion expressed in yeast strain MaV203 (ProQuest two-hybrid system); also called PPD1 fused to DBD; PPD1 bait
As for B1, the binding result in assay [1] is “no binding”; in assay [2], “binds”; in assay [3] it was “binds”; in assay [4], “binds”.

B2: Y2H TPL-DBD (Arabidopsis TOPLESS, At1g15750, full length, with N-terminal GAL4 DNA binding domain; pDEST32-TPL) (other)
chain: MKLLSSIEEACNICRLKKLKCSKEKPKCAKCLKNNWECRYSPKTKRSPLTRAHLTEVESRLERLEQLFLLIFPRENLNMILKMDSLQDIKALLTGLFVQDNVNKDAVTDRLASVETDMPLTLRQHRISATSSSEESSNKGQRQLTVSSRSNQTSLYKKAGSMSSLSRELVFLILQFLDEEKFKETVHKLEQESGFFFNMKYFEDEVHNGNWDEVEKYLSGFTKVDDNRYSMKIFFEIRKQKYLEALDKHDRPKAVDILVKDLKVFSTFNEELFKEITQLLTLENFRENEQLSKYGDTKSARAIMLVELKKLIEANPLFRDKLQFPTLRNSRLRTLINQSLNWQHQLCKNPRPNPDIKTLFVDHSCGPPNGARAPSPVNNPLLGGIPKAGGFPPLGAHGPFQPTASPVPTPLAGWMSSPSSVPHPAVSAGAIALGGPSIPAALKHPRTPPTNASLDYPSADSEHVSKRTRPMGISDEVNLGVNMLPMSFSGQAHGHSPAFKAPDDLPKTVARTLSQGSSPMSMDFHPIKQTLLLVGTNVGDIGLWEVGSRERLVQKTFKVWDLSKCSMPLQAALVKEPVVSVNRVIWSPDGSLFGVAYSRHIVQLYSYHGGEDMRQHLEIDAHVGGVNDISFSTPNKQLCVITCGDDKTIKVWDAATGVKRHTFEGHEAPVYSVCPHYKENIQFIFSTALDGKIKAWLYDNMGSRVDYDAPGRWCTTMAYSADGTRLFSCGTSKDGESFIVEWNESEGAVKRTYQGFHKRSLGVVQFDTTKNRYLAAGDDFSIKFWDMDAVQLLTAIDGDGGLQASPRIRFNKEGSLLAVSGNENVIKIMANSDGLRLLHTFENISSESSKPAINSIAAAAAAAATSAGHADRSANVVSIQGMNGDSRNMVDVKPVITEESNDKSKIWKLTEVSEPSQCRSLRLPENLRVAKISRLIFTNSGNAILALASNAIHLLWKWQRNERNATGKATASLPPQQWQPASGILMTNDVAETNPEEAVPCFALSKNDSYVMSASGGKISLFNMMTFKTMATFMPPPPAATFLAFHPQDNNIIAIGMDDSTIQIYNVRVDEVKSKLKGHSKRITGLAFSNVLNVLVSSGADAQLCVWNTDGWEKQRSKVLPLPQGRPNSAPSDTRVQFHQDQAHFLVVHETQLAIYETTKLECMKQWAVRESLAPITHATFSCDSQLVYASFMDATVCVFSSANLRLRCRVNPSAYLPASLSNSNVHPLVIAAHPQEPNMFAVGLSDGGVHIFEPLESEGKWGVAPPAENGSASGAPTAPSVGASASDQPQR
notes: Bait fusion in yeast; also called TPL fused to DBD
Turning to B2, the binding result in assay [5] and in assay [6] was “binds” throughout.
